The text below walks through data of patent US20050152916A1.

Several values for one entry are separate records, joined by “and”; a condition that tells them apart may be missing. Identical values can stand only once.

Assay [1] addresses 2C T-cell receptor (on T-cells of 2C TCR transgenic mice) (mouse). As to the kind of experiment: flow cytofluorometry of purified 2C TCR transgenic lymph node T-cells.
Assay [2] shares this target. Briefly: staining of purified CD8+ lymph node cells of 2C mice.
Assay [3] deals with L^d on cells loaded with QL9 peptide (mouse) (UniProt P01887).
Sequence of L^d on cells loaded with QL9 peptide (mouse) (P01897 25-362, chain 1 of 2): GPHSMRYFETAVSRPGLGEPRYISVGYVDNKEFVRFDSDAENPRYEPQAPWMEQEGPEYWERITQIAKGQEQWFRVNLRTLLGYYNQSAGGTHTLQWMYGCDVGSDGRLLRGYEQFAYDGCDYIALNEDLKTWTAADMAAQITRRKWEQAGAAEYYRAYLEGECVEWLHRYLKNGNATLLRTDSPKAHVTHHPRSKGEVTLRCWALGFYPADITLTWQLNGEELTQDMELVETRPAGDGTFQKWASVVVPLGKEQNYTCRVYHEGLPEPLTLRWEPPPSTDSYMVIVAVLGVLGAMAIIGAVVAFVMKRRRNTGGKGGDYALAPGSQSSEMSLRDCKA
Sequence of L^d on cells loaded with QL9 peptide (mouse) (P01887 21-119, chain 2 of 2): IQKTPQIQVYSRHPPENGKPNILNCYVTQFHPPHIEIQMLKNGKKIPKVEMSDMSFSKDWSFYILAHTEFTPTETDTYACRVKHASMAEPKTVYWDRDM
Assay [4] deals with recombinant biotinylated L^d immobilized on a support, loaded with QL9 peptide (mouse) (UniProt P01887).
Sequence of recombinant biotinylated L^d immobilized on a support, loaded with QL9 peptide (mouse) (P01897 25-309 limits assumed, chain 1 of 2): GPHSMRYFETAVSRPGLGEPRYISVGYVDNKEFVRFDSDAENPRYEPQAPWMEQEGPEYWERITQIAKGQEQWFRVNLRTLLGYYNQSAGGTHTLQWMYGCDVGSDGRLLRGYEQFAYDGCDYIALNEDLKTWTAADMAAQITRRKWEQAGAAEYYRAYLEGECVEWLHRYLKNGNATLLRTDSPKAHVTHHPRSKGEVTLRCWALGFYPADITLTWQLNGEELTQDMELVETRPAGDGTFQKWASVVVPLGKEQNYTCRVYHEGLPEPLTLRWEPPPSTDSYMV
Sequence of recombinant biotinylated L^d immobilized on a support, loaded with QL9 peptide (mouse) (P01887 21-119 limits assumed, chain 2 of 2): as the sequence (P01887 21-119, chain 2 of 2) above
Assay [5] has as its target recombinant biotinylated L^d immobilized on avidin-coated sheep red blood cells (mouse). As to the kind of experiment: flow cytofluorometry of L^d-coated SRBC with anti-L^d antibody 30.5.7 (FIG. 8).

As for “monoclonal antibody 1B2 (anti-clonotypic antibody to the 2C T-cell receptor)”, the percent of cells positive for staining in assay [1] is 97% and 98%; in assay [2], greater than 95%.
For the substance “2C T-cell receptor (on T-cells of 2C TCR transgenic mice)”, the percent of lymphocytes included in rosettes in assay [3] is 30% and 40%; in assay [4], 30% and 40%.
monoclonal antibody 30.5.7 (anti-L^d): the percent of cells labeled in assay [5] stood at 99.8%.
